The target in this experiment is T1, tetanus toxoid (UniProt P04958 2-1315).
T1 construct: also called TT
The experiment in a line: ELISA, 100 ng protein coated per well, anti-human Fab-HRP detection. (ELISA stands for enzyme-linked immunosorbent assay.)

T1 sequence (P04958 2-457 limits assumed, chain 1 of 2): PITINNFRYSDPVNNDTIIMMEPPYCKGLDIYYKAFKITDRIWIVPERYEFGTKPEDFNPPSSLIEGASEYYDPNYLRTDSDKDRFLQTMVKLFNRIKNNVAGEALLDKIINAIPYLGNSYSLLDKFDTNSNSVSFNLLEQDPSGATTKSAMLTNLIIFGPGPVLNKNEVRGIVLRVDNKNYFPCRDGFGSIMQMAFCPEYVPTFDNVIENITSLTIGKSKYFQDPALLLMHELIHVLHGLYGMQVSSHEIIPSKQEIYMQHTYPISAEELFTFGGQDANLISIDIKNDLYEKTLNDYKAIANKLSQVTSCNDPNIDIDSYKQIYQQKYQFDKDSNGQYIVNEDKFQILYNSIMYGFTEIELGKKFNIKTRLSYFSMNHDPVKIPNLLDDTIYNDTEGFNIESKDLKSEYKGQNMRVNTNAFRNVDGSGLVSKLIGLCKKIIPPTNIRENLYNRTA
T1 sequence (P04958 458-1315 limits assumed, chain 2 of 2): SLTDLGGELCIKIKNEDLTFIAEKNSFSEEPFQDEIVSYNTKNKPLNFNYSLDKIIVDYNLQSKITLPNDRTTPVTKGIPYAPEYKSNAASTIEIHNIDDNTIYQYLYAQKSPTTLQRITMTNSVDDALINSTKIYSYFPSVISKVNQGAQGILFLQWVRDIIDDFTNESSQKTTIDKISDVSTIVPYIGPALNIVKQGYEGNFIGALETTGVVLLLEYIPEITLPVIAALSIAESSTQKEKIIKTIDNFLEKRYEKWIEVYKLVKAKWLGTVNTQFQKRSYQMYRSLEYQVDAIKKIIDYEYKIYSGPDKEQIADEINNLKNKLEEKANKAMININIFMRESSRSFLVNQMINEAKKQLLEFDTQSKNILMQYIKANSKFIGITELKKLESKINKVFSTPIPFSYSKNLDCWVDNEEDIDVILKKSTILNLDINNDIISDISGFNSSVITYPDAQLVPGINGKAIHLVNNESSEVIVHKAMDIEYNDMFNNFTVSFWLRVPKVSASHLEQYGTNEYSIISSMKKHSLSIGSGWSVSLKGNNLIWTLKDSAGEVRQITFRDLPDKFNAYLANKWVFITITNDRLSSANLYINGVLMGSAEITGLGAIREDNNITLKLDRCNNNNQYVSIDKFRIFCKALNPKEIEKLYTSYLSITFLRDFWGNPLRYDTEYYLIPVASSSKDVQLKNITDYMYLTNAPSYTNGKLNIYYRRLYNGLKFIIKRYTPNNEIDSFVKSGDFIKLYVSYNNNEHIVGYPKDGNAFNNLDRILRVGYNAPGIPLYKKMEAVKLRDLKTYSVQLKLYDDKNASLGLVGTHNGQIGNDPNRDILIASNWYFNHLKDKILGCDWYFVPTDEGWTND

B1: KYK-1.0 Fab (Fab, V domains shown)
VH: EVQLVESGGGVVQPGGSLRLSCAASGFTFSSYGMHWVRQAPGKGLEWVAFIRYDGSNKYYADSVKGRFTISRDNSKNTKYLQMNSLRAEDTAVYYCAKDRFGYYLDYWGQGTLVTVSS
VL: QPVLTQPSSVSVAPGETARIPCGGDDIETKSVHWYQQKPGQAPVLVIYDDDDRPSGIPERFFGSNSGNTATLSISRVEAGDEADYYCQVWDDNNDEWVFGGGTQLTVL
notes: Human Fab with human constant domains (lambda light chain) and a C-terminal (His)6 tag, expressed in E. coli from pC3C-His and purified by IMAC
Take B1: the binding result is on record as “no binding”.

B2: KYK-2.0 Fab (Fab, V domains shown)
VH: QVQLVESGGGLVKPGGSLRLSCAASGFTFSSYGMHWVRQAPGKGLEWVAFIRYDGSNKYYADSVKGRFTISRDNSKNTKYLQMNSLRAEDTAVYYCAKDRGLGDGTYFDYWGQGTTVTVSS
VL: QSALTQPASVSGSPGQSITISCSGSSSNIGNNAVNWYQQLPGKAPKLLIYYDDLLPSGVSDRFSGSKSGTSAFLAISGLQSEDEADYYCAAWDDSLNGPVFGGGTKLTVL
notes: Human Fab (lambda) with human constant domains and a C-terminal (His)6 tag, expressed in E. coli from pC3C-His and purified by IMAC
For the molecule B2, the binding result was “no binding”.

The values are drawn from patent US20110150870A1 (UNITED STATES OF AMERICA AS REPRESENTED BY TH, published 2011).
